Measurements: patent US9989536B2, “Specific and high affinity binding proteins comprising modified SH3 domains of FYN kinase” (EIDGENOESSISCHE TECHNISCHE HOCHSCHULE ZURICH, priority 2006, dated 2018)

How the values were obtained:
IL-17A [1] = target: T1, IL-17A (Homo sapiens, UniProt Q16552); assay: IL-17A inhibition cell assay (IL-6 production in NHDF, 50 ng/ml IL-17A); type: cell-based; details: NHDF cells in presence of IL-17A
T1 construct: purchased R&D Systems

IL-17A [2] = target: T1, IL-17A; assay: Acute inflammation model: human IL-17A induced KC production in mice; type: in vivo, mouse; details: C57BL/6 mice, co-injected s.c. with 3 μg human IL-17A (17 μg 2C1, 16 μg wt), 2 hours
Experimental: Human IL-17A is able to bind and stimulate the mouse IL-17 receptor, leading to an elevation and subsequent secretion of mouse KC (CXCL1) chemokine (Allan B. et al. (2007) WO2007/070750 of Eli Lilly, US). The observed KC levels 2 hours after s.c. IL-17A injection (3 μg) were between […] in the serum, compared to around […] KC basal levels.
The blood samples were centrifuged for 10 min at 9500×g and the serum was stored at −20° until ELISA analysis was performed. KC levels in serum were determined using the commercially available Quantikine mouse CLCL1/KC kit (R&D Systems).
After 20-60 minutes, 3 μg/mouse of human IL-17A (R&D Systems) was injected s.c. and 2 hours after IL-17A injection, blood samples were taken from the vena saphena with the capillary Microvette CB 300 (Sarstedt). The blood samples were centrifuged for 10 min at 9500×g and the serum was stored at −20° until ELISA analysis was performed. KC levels in serum were determined using the commercially available Quantikine mouse CLCL1/KC kit (R&D Systems).

[3] = test system: F9 murine teratocarcinoma; assay: Quantitative biodistribution of 125I-labeled protein in tumor-bearing mice; type: in vivo; details: i.v., 24 h
[4] = Humira Drug Approval Package; cited from earlier work
[5] = test system: Normal Human Dermal Fibroblasts (NHDF); assay: XTT viability of NHDF cells; type: cell-based; details: polypeptides at 750 nM, IL-17 receptor 10 nM, 24 hours
Experimental: IL-17A induces the production of IL-6 in fibroblasts in a dose-dependent manner (Yao et al. (1995) Immunity, 3, p. 811-821). […] Cell culture supernatants were taken after 24 h of stimulation and assayed for IL-6 with ELISA. […] Only viable and metabolic active cells are capable of reducing the tetrazolium salt XTT to orange-colored compounds of formazan (Scudiero, et al. (1988), Cancer Res. 48, p. 4827-4833).
400 μl of a cell suspension containing about 1×10^4 Normal Human Dermal Fibroblasts (PromoCell, NHDF-c, C12300) were distributed per well (24 well plate, Nunc or TPP) and cultured for 24 hours at 37° C. (medium: Fibroblast Growth Medium C-23010, PromoCell). […] After 24 hours incubation at 37° C. the supernatant was aspirated and the IL-6 concentration was determined by ELISA according to the manufacturer's instructions (IL-6 ELISA kit, R&D Systems). Immediately after the aspiration of the supernatant the XTT-containing medium was added (Cell Proliferation Kit II, Roche) and cell viability was determined according to the manufacturer's instructions.

T1 sequence (Q16552 20-155 limits assumed): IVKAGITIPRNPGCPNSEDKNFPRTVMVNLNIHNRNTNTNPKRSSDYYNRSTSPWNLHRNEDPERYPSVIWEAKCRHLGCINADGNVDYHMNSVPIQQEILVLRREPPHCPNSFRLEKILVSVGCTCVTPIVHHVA

Fyn SH3 wt: wild type SH3 domain of Fyn kinase, SEQ ID NO: 1 (SEQ ID NO: 339 in Example 5)
inhibition of IL-6 production (IL-17A [1]): no inhibition of IL-6 production
KC levels in mouse serum (IL-17A [2]): as high as in the group receiving IL-17A only
accumulation in the tumor [3]: no enrichment

adalimumab
half-life of other human antibodies in mice [4]: 102 to 193 h

IL-17A receptor-Fc chimera: commercially available human IL-17A receptor Fc chimera (R&D Systems)
cell viability (XTT assay) [5]: all cells were viable
